Test results published in US20090123934A1 (published 2009).
Substitutions are numbered along the chain they refer to.

Tests used:
[1] = molecular target: wildtype PoloBD-fusion protein (Drosophila melanogaster) (UniProt P52304); assay: yeast two-hybrid, serial dilutions
HA-Polo = molecular target: T1, HA-Polo (Drosophila melanogaster, UniProt P52304 1-576); assay: purified Flag-Mtrm incubated with HA-Polo, immunoprecipitated with anti-Mtrm antibody, anti-HA Western blot (FIG. 18)
T1 construct: Expressed with baculovirus in Sf9 cells; also called Polo with a 2XHA tag at the N-terminus; not shown: N-terminal 2XHA tag
T1 sequence (looked up): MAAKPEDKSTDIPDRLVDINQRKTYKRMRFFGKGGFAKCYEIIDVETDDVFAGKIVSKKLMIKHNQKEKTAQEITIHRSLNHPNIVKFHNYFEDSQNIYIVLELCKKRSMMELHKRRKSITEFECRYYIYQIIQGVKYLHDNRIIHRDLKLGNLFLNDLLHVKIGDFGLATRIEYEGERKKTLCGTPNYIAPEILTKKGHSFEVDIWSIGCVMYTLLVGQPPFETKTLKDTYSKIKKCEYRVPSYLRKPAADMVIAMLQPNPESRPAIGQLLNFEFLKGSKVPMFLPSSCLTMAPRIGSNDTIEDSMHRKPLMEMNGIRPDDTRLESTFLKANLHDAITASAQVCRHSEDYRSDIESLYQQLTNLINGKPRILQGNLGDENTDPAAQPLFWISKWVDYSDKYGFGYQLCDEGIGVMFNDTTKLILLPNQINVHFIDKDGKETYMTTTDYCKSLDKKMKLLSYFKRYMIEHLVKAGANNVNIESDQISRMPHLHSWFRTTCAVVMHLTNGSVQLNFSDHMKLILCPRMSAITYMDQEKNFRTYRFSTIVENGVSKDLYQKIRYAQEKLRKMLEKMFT
Experimental: Protein from affinity-purified Flag-Mtrm and HA-Polo was used for an in vitro binding experiment. 50 μg Flag-Mtrm was mixed with the same amount of HA-Polo in 60 μl of the above buffer and incubated for 1 hr at 30° C. As a control, 50 μg HA-Polo in 60 μl was also incubated. After incubation, both protein samples were immunoprecipitated using 50 μl protein A agarose beads coated with anti-Mtrm antibody (from guinea pig) for 1 hr at 4° C. The agarose beads were washed 6 times with the above protein buffer.
For Western blotting, the beads were suspended in 40 μl of SDS loading buffer (50 mM Tris-HCl (pH 6.8), 100 mM DTT, 2% SDS, 0.1% bromophenol blue, 10% glycerol) and heated for 3 min at 95° C. before being loaded on a PAGE gel. Western blotting for HA-Polo was conducted using anti-HA antibody from mouse and an Alkaline Phosphatase chromogen kit (BCIP/NBT) (Roche). (FIG. 18).

Polo kinase (Polo) [2] = molecular target: T2, Polo kinase (Polo) (Drosophila melanogaster, UniProt P52304 1-576, T182 detected as phosphorylated (over 80%) in Polo bound to Mtrm); assay: anti-FLAG affinity purification from ovarian extracts, MudPIT mass spectrometry, three replicates
T2 construct: Endogenous Polo in ovary extracts; also called polo (FBgn0003124)
T2 sequence (looked up): T1 sequence (looked up)
From the text: We analyzed three independent affinity purifications from ovarian extracts expressing a C-terminally 3×FLAG-tagged Mtrm and used MudPIT mass spectrometry to identify interacting proteins. We then compared the identified proteins to those detected in five control FLAG immuno-precipitations from control (w¹¹¹⁸) flies.
In order to prepare a C-terminally 3×FLAG-tagged Mtrm for the MudPIT mass spectrometry assay, the UASP-mtrm-Flag (3×) construct was expressed in ovaries under the control of the nanos-GAL4 driver in a wild-type background. The extraction of protein from the ovaries was the same as described above. 100 μl of anti-FLAG beads were washed 2 times with pre-chilled 1×PBS and then 2 times with pre-chilled ovary extract buffer. The anti-FLAG beads were mixed with the extract supernatant, incubated and washed as described above. After washing, the beads bound with Mtrm-FLAG (3×) were finally transferred to a mini-column and washed with 25 ml of TBS (50 mM Tris-HCl, pH 7.4, 150 mM NaCl) at 4° C. When washing was completed, 300 μl TBS with 100 μg/ml 3×FLAG peptide was added to elute proteins. TCA was added to the eluted protein solution at a final concentration of 20%. The solution was mixed and kept on ice for at least 30 minutes. The solution was centrifuged at 14000 rpm at 4° C. for 15 minutes. […] The pellet was air dried and ready for the Mud PIT spectrometry analysis.

Polo kinase (Polo) [3] = molecular target: T2, Polo kinase (Polo); assay: co-immunoprecipitation, ovary extracts
Experimental: To prepare the ovary extract for immunoprecipitation, ovaries from 100 yeast-fed female flies were dissected in 1×PBS. The ovaries were homogenized in an Eppendorf tube at 4° C. by a small pestle in 0.5 ml of ovary extract buffer containing 25 mM Hepes (pH 6.8), 50 mM KCl, 1 mM MgCl₂, 1 mM DTT and 125 mM sucrose with protease inhibitors cocktail (Calbiochem). The extract was centrifuged at 14000×g for 15 minutes at 4° C. and the supernatant was collected.
Protein A agarose beads were used for binding polyclonal antibodies from rabbit and guinea pig. Protein G agarose beads were used for binding monoclonal antibody from mouse. 50 ul of protein A or G-coated agarose was washed three times with PBST (PBS+0.1% Triton X-100). 10 ul of antibody was added to the beads in a final volume of 500 ul of PBS and mixed on a shaker for 1 hour at 4° C. The beads then were washed twice with PBST. The ovary extract was immunoprecipitated with the beads for 1 hour at 4° C. with continual shaking. After recovery by centrifugation at 1000×g for 3 minutes, the beads were washed 4 times with the cold ovary extract buffer with protease inhibitors, for 5 minutes each. For Western blotting, the beads were suspended in 30 μl of SDS loading buffer (50 mM Tris-HCl (pH 6.8), 100 mM DTT, 2% SDS, 0.1% bromophenol blue, 10% glycerol) and heated for 3 minutes at 95° C. before being loaded on a PAGE gel. […]

“MtrmT(40)A mutant MtrmAD-fusion protein (from UniProt Q23973 1-217)” gave a colonies at the third serial dilution [1] of 1 colonies and a colonies following the first serial dilution [1] of 7 colonies.

B1: Flag-Mtrm (other)
chain: MENSRTPTNKTKITLNRTPTLKERRWNTLKVNTSNVRCSTPIFGNFRSPNLSPIENMGTKGKSPVSPMRFATFKKVPTKVHPKQQQQQQHQHCHRTQLKPPPFVLPKPQEEIIEPEREIKSCSSPDTCSDDSNMETSLALESRRRSIKASNHSYVVNHAANVEQILMHMGLENYVTNFEEAHIDLVELASLERADLVKIGLNTDEDCNRIMDVLHTL
notes: Expressed with baculovirus in Sf9 cells; also called Mtrm with a Flag tag at the N-terminus; not shown: N-terminal Flag tag
B1: binds (HA-Polo).

B2: C-terminally 3×FLAG-tagged Mtrm (other)
chain: B1 chain
modifications: phosphorylation detected on T40, S124 (less reproducibly), S48, S52 and S137
notes: Expressed in ovaries under nanos-GAL4 in a wild-type background; purified on anti-FLAG beads for MudPIT; also called Mtrm-Flag(3×); Mtrm-FLAG (3×); not shown: C-terminal 3×FLAG tag
For B2, the “ratio between the two proteins (NSAF)” value (Polo kinase (Polo) [2]) was 0.96 ratio of NSAF values.

B3: Mtrm with both PBD binding sites mutated (T(40)A and S(124)A) (other)
chain: B1 chain with T40A, S124A
B3: no binding (Polo kinase (Polo) [3]).
